{
  "source": "patent US20240173301A1",
  "about": "“2-IMINOBIOTIN FOR USE IN THE TREATMENT OF STROKE” (NEUROPHYXIA B.V., priority 2021, published 2024)",
  "origin": "cited, not measured here",
  "molecules": {"B1": {"name": "Alteplase (protein, UniProt P00750 36-562, looked up)", "Tissue-type plasminogen …": "SYQVICRDEKTQMIYQQHQSWLRPVLRSNRVEYCWCNSGRAQCHSVPVKSCSEPRCFNGGTCQQALYFSDFVCQCPEGFAGKCCEIDTRATCYEDQGISYRGTWSTAESGAECTNWNSSALAQKPYSGRRPDAIRLGLGNHNYCRNPDRDSKPWCYVFKAGKYSSEFCSTPACSEGNSDCYFGNGSAYRGTHSLTESGASCLPWNSMILIGKVYTAQNPSAQALGLGKHNYCRNPDGDAKPWCHVLKNRRLTWEYCDVPSCSTCGLRQYSQPQFRIKGGLFADIASHPWQAAIFAKHRRSPGERFLCGGILISSCWILSAAHCFQERFPPHHLTVILGRTYRVVPGEEEQKFEVEKYIVHKEFDDDTYDNDIALLQLKSDSSRCAQESSVVRTVCLPPADLQLPDWTECELSGYGKHEALSPFYSERLKEAHVRLYPSSRCTSQHLLNRTVTDNMLCAGDTRSGGPQANLHDACQGDSGGPLVCLNDGRMTLVGIISWGLGCGQKDVPGVYTKVTNYLDWIRDNMRP", "notes": "fibrinolytic drug"}},
  "details": "acute ischemic stroke, intravenous thrombolysis",
  "data": [
    {"molecule": "B1", "values": [
      {"measurement": "risk of a poor outcome", "result": "reduced the risk of a poor outcome"}
    ]}
  ]
}
